In the supplement of paper PMC10126150:
± gives the standard deviation of the averaged measurements.

Tested on: ATP
Assay: switch fluorescence ratio, 500 uM ATP over buffer (Cy3 cluster intensity, sum of 5 cycles each) (fold (ratio)); higher = stronger signal-on switching upon ATP binding; sequences stand for … in TCGTCGGCAGCGTCAGATGTGTATAAGAGACAGTTTTTTTTTTTTTTTTTTTTTTTTT…TC
Conditions: aptamer strand: ATP DNA aptamer (quencher-CACCTGGGGGAGTATTGCGGAGGAAGG + anchor), 100 nM annealed; ATP concentration: 500 uM
How it was run: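 Clusters carrying Cy3-labelled switching strands on a modified Illumina MiSeq flow-cell were annealed to 100 nM quencher-labelled ATP aptamer and imaged in selection buffer. They were imaged again after 15 min with 500 uM ATP at 22 °C, over five buffer/ATP cycles with NaOH stripping and re-annealing in between. For each cluster, the fluorescence ratio is the summed Cy3 intensity of the target cycles divided by that of the buffer cycles, averaged per switch-domain sequence. Clusters outside 100-1000 RFU were left out.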
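Note: ATP exposure 15 min at 22 °C before imaging.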

Sequence | switch fluorescence ratio
GATCATCAGT | 0.991 ± 0.023
AAGTGGGCGC | 0.984 ± 0.016
TGCATTATAC | 3.59 ± 0.19
TAGCCGGGGA | 1.01 ± 0.032
ATACTAAGTG | 1.01 ± 0.02
AAAGTCTTGT | 1.01 ± 0.035
ATTATCGGGA | 1.02 ± 0.0017
AACGCATAGG | 1.176 ± 0.0078
AGCATACAAA | 0.98 ± 0.012
TTTAGATGCT | 1.03 ± 0.099
TCGGCGGGAG | 1.01 ± 0.042
CGTGAAAAGA | 0.986 ± 0.033
TCGTTGGTCC | 1.026 ± 0.0048
CGGTTTATTG | 1 ± 0.036
TGATTTATGA | 0.9924 ± 0.0067
AAATGGGGAC | 0.9777 ± 0.0029
TAATGAGGCT | 1.03 ± 0.014
GTCATACCTT | 1.2 ± 0.1
AATTCGACGA | 1.006 ± 0.0056
AGCCTCCGGT | 1.13 ± 0.073
GGGAAAATTA | 0.997 ± 0.019
TAGCAGGCTA | 1 ± 0.013

Sequence | switch fluorescence ratio
AATAAATAGG | 0.9953 ± 0.0053
TGGTAATATA | 1.02 ± 0.024
TGCAAGTGGT | 1.54 ± 0.75
ATAGTTTG | 0.97739 ± 0.00022
CTGAGTCGGA | 0.983 ± 0.033
GCCGGGGGCG | 0.982 ± 0.051
GCTGGGTGCT | 0.984 ± 0.015
CTGGGGTTTG | 0.956 ± 0.019
TGGGGTGGCA | 1.01 ± 0.045
TGGTAGTCGT | 0.994 ± 0.043
ATGGTGTACT | 1.012 ± 0.0033
GTTCGGGGTG | 0.978 ± 0.003
TGCGGGGTGG | 1.12 ± 0.072
TTTAATTTT | 1.04 ± 0.078
AGTAGGTAGG | 0.981 ± 0.03
AATCTGGGAG | 0.996 ± 0.015
ATTTTAGCTG | 1.01 ± 0.046
CGCAGGGTTC | 1.13 ± 0.12
CATTGTTGAT | 0.989 ± 0.017
ACGCCCTGGC | 1.04 ± 0.045
TACGATGAGG | 1.05 ± 0.018
CCGGAAACCA | 1.01 ± 0.021

Sequence | switch fluorescence ratio
TTATCGGTCT | 0.9849 ± 0.0065
AATTCCGGCG | 1.12 ± 0.098
GGGGAGTGAA | 0.992 ± 0.031
TTCGGCCCGA | 1.01 ± 0.039
ATGGAGACGG | 0.979 ± 0.019
ATTGAAGATG | 0.971 ± 0.025
TATGGTCCTG | 0.962 ± 0.023
AAAACAAATA | 0.9968 ± 0.0089
CTGAGGGTAT | 1.006 ± 0.0098
GTAAGAGTTC | 1.02 ± 0.051
TAGTTATTAG | 1 ± 0.04
TAATACTTTT | 1.07 ± 0.098
TCCTAGTTGA | 1.024 ± 0.0012
TATAATGGTG | 0.976 ± 0.021
GGGATTACGT | 1.03 ± 0.029
ACGGGAGGGG | 1.04 ± 0.048
GAAGTGGGTT | 0.989 ± 0.024
GGGAGATTAG | 0.979 ± 0.015
ATCGGAGACA | 0.9681 ± 0.0067
TGGGAAGTCA | 0.991 ± 0.012
GGGGATTAAT | 0.99 ± 0.042
GATATATTGT | 0.993 ± 0.035

Sequence | switch fluorescence ratio
GAAGGGAATG | 1.01 ± 0.017
TGGCGGAACA | 1.02 ± 0.017
GATGAAGGTA | 0.991 ± 0.052
CCGATGTATA | 1.35 ± 0.053
TCACGTGGCT | 0.975 ± 0.015
GGTAAAAAGG | 0.971 ± 0.022
TAGGGTTAAG | 0.9994 ± 0.004
AGTTTTTGTC | 0.953 ± 0.048
TTGTTGCGTT | 0.986 ± 0.025
TTGACATCCC | 1.07 ± 0.032
TAAAATTATG | 0.974 ± 0.019
GGGGCGATTG | 1.02 ± 0.013
TTTGTTCATT | 0.953 ± 0.019
ATGATTTATT | 1 ± 0.011
CGTAACAATG | 1.1 ± 0.034
TGCTGAGTAG | 0.9785 ± 0.0036
GGTGGTGTTT | 1 ± 0.026
ATGGTATAGG | 1.01 ± 0.032
AAAAAATAG | 0.985 ± 0.013
